This note sets out measurements from PMC2658612 (Cell host & microbe, 2008).

This test concerns the target T1, SifA (1–330), as in the calorimetry and the crystal (S. typhimurium, UniProt Q56061 1-330).
T1 sequence: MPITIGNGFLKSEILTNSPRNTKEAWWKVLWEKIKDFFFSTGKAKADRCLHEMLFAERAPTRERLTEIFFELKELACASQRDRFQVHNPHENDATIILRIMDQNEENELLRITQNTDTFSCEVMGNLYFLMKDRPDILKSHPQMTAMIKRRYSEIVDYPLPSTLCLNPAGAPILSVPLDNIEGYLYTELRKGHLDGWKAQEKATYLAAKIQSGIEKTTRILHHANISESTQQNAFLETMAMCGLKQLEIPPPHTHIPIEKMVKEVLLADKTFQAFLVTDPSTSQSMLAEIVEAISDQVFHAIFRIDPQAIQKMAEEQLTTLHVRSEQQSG
The test is described as follows: ITC. On the technique in general: Isothermal titration calorimetry measures the heat released or taken up as one component is titrated into another.

B1: PH domain (PHD) of SKIP (774–883), as in the calorimetry and the crystal (domain or fragment, UniProt Q8IWE5 774-883, looked up)
chain: KEGMLHYKAGTSYLGKEHWKTCFVVLSNGILYQYPDRTDVIPLLSVNMGGEQCGGCRRANTTDRPHAFQVILSDRPCLELSAESEAEMAEWMQHLCQAVSKGVIPQGVAP
For orientation: Kd means the free concentration of one partner at which half of the binding sites on the other are occupied at equilibrium, for simple one-to-one binding. High values mean weaker binding, low ones tighter binding. Turning to B1, the Kd was determined as 2580 nM.
